Key:
[1] = biological target: M. tuberculosis Eσ^B holoenzyme (M. tuberculosis) (UniProt P9WGZ1); assay: cryo-EM particle classification
[2] = biological target: M. tuberculosis Eσ^B holoenzyme (M. tuberculosis) (UniProt P9WGZ1); assay: negative-stain electron microscopy
[3] = biological target: RNAP core deltaFT;sigB Cys151/292 (DY547P1/DY647P1 labelled);RbpA (Mycobacterium …, UniProt P9WGZ1;P9WGY9;P9WGY7;P9WGY5;P9WGI5;P9WHJ5 …, internal_change|T151C;G292C|); assay: smFRET
[4] = biological target: RNAP core deltaFT;sigB Cys151/292 (DY547P1/DY647P1 labelled) (Mycobacterium …, UniProt P9WGZ1;P9WGY9;P9WGY7;P9WGY5;P9WGI5 1-347;1-810+826-1178;1-1316;1-110;1-323, internal_change|T151C;G292C); assay: smFRET

| Molecule | stoichiometry N [1] | stoichiometry N [2] | binding result [3] | binding result [4] |
| --- | --- | --- | --- | --- |
| M. tuberculosis Eσ^B holoenzyme (from UniProt P9WGZ1;P9WGY9;P9WGY7;P9WGY5;P9WGI5) (complex) | 2 | 8 | – | – |
| TGCGTATAATGTGTGGA (ssDNA) [-10 ssDNA (unlabelled)] | – | – | binds | binds |
